One assay deals with MDA-231 cells. In words: Collagen-based invasion assay, MDA-231. In kind it is cell-based, human. The note with it: MDA-231, expresses neither antigen. As to the method:
(§1) Collagen-based invasion assay—The assay was done using CHEMICON® Kit (#ECM551, MILLIPORE®, Billerica, Mass.). Tumor cells at 80% confluence and were serum-starved for 18 to 24 hours before the assay was used. Cells were harvested with 5 mol of 2 mmol/L EDTA/PBS per 100-mm dish and incubated at 37° C. for 5 to 15 minutes. Cells were collected into 10 to 20 mol of quenching medium (serum-free DMEM containing 5% BSA) to inactivate trypsin/EDTA from the harvesting buffer. Cells were pelleted, resuspended in quenching medium (1×10^6 cells/mol), and appropriate antibody Fabs were added to individual cell aliquots. Cell invasion potential was determined as follows. Baseline invasion and invasion in the presence of a chemoattractant (10% FBS) were measured after a 72-hour incubation period at 37° C. in a 5% CO2 incubator. The bottom side of the collagen-coated polycarbonate membrane insert of the invasion chamber was placed in 400 μL of cell stain for 20 minutes at room temperature and washed. The dye was extracted and transferred into a 96-well microtiter plate for colorimetric measurements (A560 nm).

Assay [1] concerns MDA-468 adhesion to fibronectin. In words: Adhesion to extracellular matrix proteins assay, MDA-468. In kind it is cell-based, human. As to the method: (§2) Adhesion to extracellular matrix proteins assay—The assay was done using the CYTOMATRIX™ screening kit from CHEMICON® (Kit #ECM205, Temecula, Calif.). The kit contains 96-well plates with strips coated with fibronectin, vitronectin, laminin, collagen-I, or collagen-IV. Subconfluent cell cultures were used for these studies. Cells (1×10^6 cells/mol) were seeded onto coated substrate and incubated at 37° C. for 1 hour in a CO2 incubator in PBS containing Ca^2+/Mg^2+ (200 μL per well). Adherent cells were fixed and stained. The plate was washed to remove unadhered cells and stained with 100 μL per well of MTS (Cell Titer Aq 96, PROMEGA®, Madison, Wis.) for 5 minutes at room temperature. Excess stain was removed with three PBS washes. Solubilization buffer [100 μL of a 50:50 mixture of 0.1 mol/L NaH2PO4 (pH 4.5) and 50% ethanol] was added to each well. Relative attachment was determined using absorbance readings (A540 nm-A570 nm).

The target of another assay is T1, CEA (HeLa-CEA2) (Homo sapiens, UniProt P06731).
T1 construct: expressed in transfected cells; host or cells: HeLa (HeLa-CEA2)
T1 sequence (P06731 35-676): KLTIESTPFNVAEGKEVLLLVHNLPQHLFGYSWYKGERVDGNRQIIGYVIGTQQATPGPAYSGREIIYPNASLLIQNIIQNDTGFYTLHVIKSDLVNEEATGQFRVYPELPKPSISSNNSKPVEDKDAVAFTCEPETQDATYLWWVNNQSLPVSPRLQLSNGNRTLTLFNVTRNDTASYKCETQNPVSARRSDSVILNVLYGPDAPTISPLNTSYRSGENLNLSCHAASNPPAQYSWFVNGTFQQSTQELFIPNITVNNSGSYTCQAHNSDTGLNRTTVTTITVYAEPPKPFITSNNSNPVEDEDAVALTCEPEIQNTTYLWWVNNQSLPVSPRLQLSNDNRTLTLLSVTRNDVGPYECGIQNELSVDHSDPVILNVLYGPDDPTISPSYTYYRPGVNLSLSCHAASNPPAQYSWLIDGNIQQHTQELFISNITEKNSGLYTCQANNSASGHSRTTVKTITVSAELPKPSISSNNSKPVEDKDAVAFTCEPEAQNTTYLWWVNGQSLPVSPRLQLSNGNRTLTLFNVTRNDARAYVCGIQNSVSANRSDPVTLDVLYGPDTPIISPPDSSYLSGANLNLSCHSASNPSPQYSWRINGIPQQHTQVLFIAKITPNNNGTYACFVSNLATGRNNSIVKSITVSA
In words: Indirect flow cytometry, HeLa-CEA2. In kind it is binding. The note with it: antibodies at 1/50 dilution of 1 mg/ml stocks. The protocol:
The reactivity of antibodies was tested by flow cytometry with a Becton-Dickinson FACSCAN®. The biotinylated second antibody was directed against mouse IgG and was detected by a streptavidin/phycoerythrin conjugate. Tests were carried out with antibodies at 1/50 dilution of 1 mg/ml stocks.
The antibodies MN-3 and MN-15 were tested for recognition of HeLa cells transfected with cDNA coding for CEA (HeLa-CEA2), NCA-90 (HeLa-KNC6/S44) and NCA-95 (HeLa-CGM6/1). As a negative control, HeLa cells transfected with the plasmid pSV2-Neo (control HeLa cells, HeLa-NeoA) were used. In addition to the antibodies MN-3 and MN-15, three control antibodies were included: […]
On the technique in general: In flow cytometry, cells or beads pass a laser one at a time.

The subject of assay [2] is LS174T cells. In words: Spontaneous migration (wound-healing) assay, LS174T. In kind it is cell-based, human. Details: dose or concentration left out as unconfirmed. The settings on record: antibody, 18 to 24 hours, untreated 38.8±10.9. As to the method: (§3) Spontaneous migration assay—Glass coverslips were placed in 100×15 mm Petri dishes and UV sterilized overnight. Suspensions of cancer cells (2-4×10^5 cells/mol) were prepared from 80% to 90% confluent monolayers. Cells were plated on each coverslip and incubated for 2 to 5 days to reach 70% to 80% confluence. Two diagonal cell-free paths (“wounds”) were created by dragging a sterile yellow pipette tip across the surface. Monolayers were rinsed several times to remove floating cells and 4 mol of fresh medium were added back in the absence or presence of antibody IgG or Fab′ (10 μg/mol) and incubated at 37° C. After 18 to 24 hours, the medium was removed and coverslips stained with 1 mol Wright-Giemsa for 1 minute. The stain was washed off with distilled water, air-dried, and mounted onto slides with Cytoseal 60. Repopulation of the wound space was evaluated by counting the number of cells that migrated into the wound area in 10 representative fields. Regions of migration were photographed for documentation.

The test system of assay [3] is CaPAN-1 adhesion to fibronectin. In words: Adhesion to extracellular matrix proteins assay, CaPAN-1. In kind it is cell-based, human. As to the method:
as §2

Another assay has as its system HT-29 cells. In words: Spontaneous migration (wound-healing) assay, HT-29. The note with it: antibody, 18 to 24 hours, untreated 14.9±9.1, n=10. In kind it is cell-based, human. Details: dose or concentration left out as unconfirmed. The protocol: as §3
The test system of assay [4] is Moser binding to fibronectin. In words: Adhesion to extracellular matrix proteins assay, Moser. In kind it is cell-based, human. As to the method: as §2
Another assay concerns MCF-7 cells. In words: Collagen-based invasion assay, MCF-7. In kind it is cell-based, human. The settings on record: 10% FBS chemoattractant, 72-hour incubation. As to the method:
as §1

Assay [5] has as its system tumor cell adhesion to ECM proteins (fibronectin, vitronectin, laminin, collagen-I, collagen-IV). In words: Adhesion to extracellular matrix proteins assay, panel of six cell lines. In kind it is cell-based, human. The protocol:
as §2

Assay [6] deals with LS174T cells. In words: Collagen-based invasion assay, LS174T. In kind it is cell-based, human. The settings on record: 10% FBS chemoattractant, 72-hour incubation. As to the method: as §1

This note sets out measurements from patent US9371393B2, “Class I anti-CEA antibodies and uses thereof” (Immunomedics, Inc., priority 2009, dated 2016).

B1: MN-15: murine Class I anti-CEA MAb, IgG1 kappa, binds A1B1 domain of CEACAM5 and CEACAM6 (antibody, V domains shown)
VL: DIQLTQSPAIMSASPGEKVTMTCSASSRVSYIHWYQQKSGTSPKRWIYGTSTLASGVPARFSGSGSGTSYSLTISSMEAEDAATYYCQQWSYNPPTFGAGTKLELKR
VH: EVRLVESGGGLVQGPGSLRLSCAASGFALTDYYMSWVRQSPGKTLEWLGFIANKANGHTTDYSPSVKGRFTISRDNSQTILYLQMNTLRTEDSATYYCARDMGIRWNFDVWGQGTTVTVSS
B1: the effect on invasion result with MDA-231 cells is “not reduced”. The “decrease of adhesion to fibronectin” value was found to be 51% in [1] and 47% in [3]. Further, the “binding to CEA” value with CEA (HeLa-CEA2) is “binds to all three antigens”. The “migrating cells per field” value with LS174T cells [2] came to 20.3±0.1 cells. Also, the “number of migrating cells per field” value with HT-29 cells worked out at 5.5±1.8 cells. Further, the “effect on binding to fibronectin” value in [4] was “not affecting the binding”.

B2: MN-15 Fab′: monovalent Fab′ fragment of murine MN-15 (antibody, V domains shown)
VL: B1 VL
VH: B1 VH
Consider B2, for which the effect on invasion result in the assay with MDA-231 cells is reported as “not reduced”. Moreover, the “reduction in cell invasion” value was 77% in the assay on MCF-7 cells and 30% in the assay with LS174T cells [6]. In addition, in [5], the “effect on adhesion to fibronectin” value is “induced a decrease in adhesion of three of six cell lines”. In addition, the “migrating cells per field” value in the assay on LS174T cells [2] is listed as 21.6±1.2 cells. Besides, in the assay with HT-29 cells, the “number of migrating cells per field” value is 5.4±0.8 cells.
